In US20100333236A1:
Several values for one entry are separate records, joined by “and”; a condition that tells them apart may be missing. Equal entries are not always repeated. Where two headings read alike, the source gives them in different places. Blank lines part the entries; values can stand above or below the molecule they belong to.

Experiments:
Test in all cases: cell-based or functional assay
[1] = molecular target: serine-like chymotrypsin protease activities from Spodoptera littoralis (cotton leafworm) larval gut extracts (Spodoptera littoralis)
[2] = molecular target: serine-like chymotrypsin protease activities from Sesamia nonagrioides (Mediterranean corn borer) larval gut extracts (Sesamia nonagrioides)
[3] = molecular target: serine-like trypsin protease activities from Ostrinia nubilalis (European corn borer) larval gut extracts (Ostrinia nubilalis)
[4] = molecular target: cysteine-like cathepsin-B protease activities from extracts of adults of Acyrthosiphon pisum (pea aphid) (Acyrthosiphon pisum)
[5] = molecular target: cysteine-like cathepsin-B protease activities from Leptinotarsa decemlineata (Colorado potato beetle) gut extracts (Leptinotarsa decemlineata)
[6] = molecular target: cysteine-like cathepsin-L protease activities from extracts of adults of Acyrthosiphon pisum (pea aphid) (Acyrthosiphon pisum)
[7] = molecular target: serine-like trypsin protease activities from Spodoptera littoralis (cotton leafworm) larval gut extracts (Spodoptera littoralis)
[8] = molecular target: serine-like elastase protease activities from Ostrinia nubilalis (European corn borer) larval gut extracts (Ostrinia nubilalis)
[9] = molecular target: cysteine-like cathepsin-L protease activities from Leptinotarsa decemlineata (Colorado potato beetle) gut extracts (Leptinotarsa decemlineata)
[10] = molecular target: cysteine-like cathepsin-L protease activities from extracts of adults of Bemisia tabaci (sweetpotato whitefly) (Bemisia tabaci)
[11] = molecular target: cysteine-like cathepsin-L protease activities from extracts of adults of Tribolium castaneum (red flour beetle) (Tribolium castaneum)
[12] = molecular target: cysteine-like cathepsin-L protease activities from extracts of adults of Tetranychus urticae (spider mites) (Tetranychus urticae)
[13] = molecular target: serine-like trypsin protease activities from Sesamia nonagrioides (Mediterranean corn borer) larval gut extracts (Sesamia nonagrioides)
[14] = molecular target: serine-like chymotrypsin protease activities from Spodoptera littoralis (cotton leafworm) larval gut extracts (Spodoptera littoralis); remark: listed apart in the source
[15] = molecular target: serine-like trypsin protease activities from Ostrinia nubilalis (European corn borer) larval gut extracts (Ostrinia nubilalis); remark: listed apart in the source
[16] = molecular target: cysteine-like cathepsin-B protease activities from extracts of adults of Acyrthosiphon pisum (pea aphid) (Acyrthosiphon pisum); remark: listed apart in the source
[17] = molecular target: serine-like trypsin protease activities from Sesamia nonagrioides (Mediterranean corn borer) larval gut extracts (Sesamia nonagrioides); remark: listed apart in the source
[18] = molecular target: cysteine-like cathepsin-B protease activities from Leptinotarsa decemlineata (Colorado potato beetle) gut extracts (Leptinotarsa decemlineata); remark: listed apart in the source
[19] = molecular target: cysteine-like cathepsin-L protease activities from extracts of adults of Acyrthosiphon pisum (pea aphid) (Acyrthosiphon pisum); remark: listed apart in the source
[20] = molecular target: serine-like trypsin protease activities from Spodoptera littoralis (cotton leafworm) larval gut extracts (Spodoptera littoralis); remark: listed apart in the source
[21] = molecular target: cysteine-like cathepsin-L protease activities from Leptinotarsa decemlineata (Colorado potato beetle) gut extracts (Leptinotarsa decemlineata); remark: listed apart in the source
[22] = molecular target: cysteine-like cathepsin-L protease activities from extracts of adults of Bemisia tabaci (sweetpotato whitefly) (Bemisia tabaci); remark: listed apart in the source
[23] = molecular target: cysteine-like cathepsin-L protease activities from extracts of adults of Tribolium castaneum (red flour beetle) (Tribolium castaneum); remark: listed apart in the source
[24] = molecular target: cysteine-like cathepsin-L protease activities from extracts of adults of Tetranychus urticae (spider mites) (Tetranychus urticae); remark: listed apart in the source

% Inhibition, Cathepsin-B, 5 µM serpin [4]: 49% | % Inhibition, Cathepsin-B, 10 µM serpin [4]: 66% | % Inhibition, Trypsin, 5 µM serpin [7]: 64% | % Inhibition, Trypsin, 10 µM serpin [7]: 69%
Molecule: AtSerpin1 mutant IKLK (SEQ ID NO:7) (from UniProt Q9S7T8 1-391)

% Inhibition, Cathepsin-B, 1.25 µM serpin [4]: 32% | % Inhibition, Trypsin, 1.25 µM serpin [13]: 38% | % Inhibition, Cathepsin-L, 1.25 µM serpin [6]: 31% | % Inhibition, Cathepsin-L, 1.25 µM serpin [11]: 73% | % Inhibition, Cathepsin-L, 1.25 µM serpin [12]: 11%
Molecule: AtSerpin1 mutant IRPR (SEQ ID NO:5) (from UniProt Q9S7T8 1-391)

% Inhibition, Chymotrypsin, 1.25 µM serpin [14]: 10% | % Inhibition, Chymotrypsin, 5 µM serpin [14]: 31% | % Inhibition, Chymotrypsin, 10 µM serpin [14]: 40% | concentration for 50% inhibition of chymotrypsin activity (FIG. 1) [14]: 10 to 20 µM | % Inhibition, Trypsin, 2 µM serpin [15]: 28% | % Inhibition, Cathepsin-B, 1.25 µM serpin [16]: 50% | % Inhibition, Cathepsin-B, 5 µM serpin [16]: 55% | % Inhibition, Cathepsin-B, 10 µM serpin [16]: 55% | concentration for 50% inhibition of cathepsin-B activity (FIG. 5) [16]: 1 µM | % Inhibition, Trypsin, 1.25 µM serpin [17]: 90% | % Inhibition, Trypsin, 5 µM serpin [17]: 97% | % Inhibition, Trypsin, 10 µM serpin [17]: 98% | concentration for 50% inhibition of trypsin activity (FIG. 2) [17]: 0.1 µM | % Inhibition, Cathepsin-B, 1.25 µM serpin [18]: 40% | % Inhibition, Cathepsin-B, 5 µM serpin [18]: 47% | % Inhibition, Cathepsin-B, 10 µM serpin [18]: 46% | concentration for 50% inhibition of cathepsin-B activity (FIG. 3) [18]: > 10 µM | % Inhibition, Cathepsin-L, 1.25 µM serpin [19]: 42% | % Inhibition, Cathepsin-L, 5 µM serpin [19]: 42% | % Inhibition, Cathepsin-L, 10 µM serpin [19]: 39% | inhibition of cathepsin-L activity, plateau (FIG. 5) [19]: 40% | % Inhibition, Trypsin, 1.25 µM serpin [20]: 52% | % Inhibition, Trypsin, 5 µM serpin [20]: 83% | % Inhibition, Trypsin, 10 µM serpin [20]: 90% | concentration for 50% inhibition of trypsin activity (fluorometric substrate, FIG. 1) [20]: 1 µM | % Inhibition, Cathepsin-L, 1.25 µM serpin [21]: 4% | % Inhibition, Cathepsin-L, 5 µM serpin [21]: 34% | % Inhibition, Cathepsin-L, 10 µM serpin [21]: 48% | concentration for 50% inhibition of cathepsin-L activity (fluorometric substrates, FIG. 3) [21]: 10 µM | % Inhibition, Cathepsin-L, 2.5 µM serpin [22]: 7% | % Inhibition, Cathepsin-L, 5 µM serpin [22]: 20% | % Inhibition, Cathepsin-L, 10 µM serpin [22]: 34% | % Inhibition, Cathepsin-L, 20 µM serpin [22]: 43% | % inhibition of cathepsin-L activity at 20 µM serpin (FIG. 6) [22]: 45% | % Inhibition, Cathepsin-L, 2.5 µM serpin [23]: 16% | % Inhibition, Cathepsin-L, 5 µM serpin [23]: 68% | % Inhibition, Cathepsin-L, 10 µM serpin [23]: 73% | % Inhibition, Cathepsin-L, 20 µM serpin [23]: 76% | IC50 of cathepsin-L activity inhibition (FIG. 4) [23]: 4 µM | % Inhibition, Cathepsin-L, 0.16 µM serpin [24]: 10% | % Inhibition, Cathepsin-L, 0.31 µM serpin [24]: 13% | % Inhibition, Cathepsin-L, 0.63 µM serpin [24]: 17% | % Inhibition, Cathepsin-L, 1.25 µM serpin [24]: 32% | % Inhibition, Cathepsin-L, 2.5 µM serpin [24]: 48% | % Inhibition, Cathepsin-L, 5 µM serpin [24]: 58% | % Inhibition, Cathepsin-L, 10 µM serpin [24]: 67% | % Inhibition, Cathepsin-L, 20 µM serpin [24]: 73% | concentration for 50% inhibition of cathepsin-L activity (FIG. 7) [24]: 2 µM
B1: AtSerpin1 (wild-type Serpin1 from Arabidopsis thaliana, At1g47710), recombinant HIS6-tagged (protein, not shown: small tags and cut ends)
chain: MDVRESISLQNQVSMNLAKHVITTVSQNSNVIFSPASINVVLSIIAAGSAGATKDQILSFLKFSSTDQLNSFSSEIVSAVLADGSANGGPKLSVANGAWIDKSLSFKPSFKQLLEDSYKAASNQADFQSKAVEVIAEVNSWAEKETNGLITEVLPEGSADSMTKLIFANALYFKGTWNEKFDESLTQEGEFHLLDGNKVTAPFMTSKKKQYVSAYDGFKVLGLPYLQGQDKRQFSMYFYLPDANNGLSDLLDKIVSTPGFLDNHIPRRQVKVREFKIPKFKFSFGFDASNVLKGLGLTSPFSGEEGLTEMVESPEMGKNLCVSNIFHKACIEVNEEGTEAAAASAGVIKLRGLLMEEDEIDFVADHPFLLVVTENITGVVLFIGQVVDPLH

Further lines, the molecule ahead of its results:

Molecule: AtSerpin1 mutant IKLA (SEQ ID NO:3) (from UniProt Q9S7T8 1-391)
% Inhibition, Chymotrypsin, 1.25 µM serpin [1]: 11% | % Inhibition, Chymotrypsin, 5 µM serpin [1]: 41% | % Inhibition, Chymotrypsin, 10 µM serpin [1]: 56% | % Inhibition, Chymotrypsin, 5 µM serpin [2]: 32% | % Inhibition, Chymotrypsin, 10 µM serpin [2]: 70% | % Inhibition, Trypsin, 2 µM serpin [3]: 51% | % Inhibition, Cathepsin-B, 1.25 µM serpin [4]: 24% | % Inhibition, Cathepsin-B, 5 µM serpin [4]: 31% | % Inhibition, Cathepsin-B, 10 µM serpin [4]: 36% | % Inhibition, Cathepsin-B, 1.25 µM serpin [5]: 62% | % Inhibition, Cathepsin-B, 5 µM serpin [5]: 77% | % Inhibition, Cathepsin-B, 10 µM serpin [5]: 70% | % Inhibition, Cathepsin-L, 1.25 µM serpin [6]: 24% | % Inhibition, Cathepsin-L, 5 µM serpin [6]: 34% | % Inhibition, Cathepsin-L, 10 µM serpin [6]: 45% | % Inhibition, Trypsin, 1.25 µM serpin [7]: 18% | % Inhibition, Trypsin, 5 µM serpin [7]: 32% | % Inhibition, Trypsin, 10 µM serpin [7]: 40% | % Inhibition, Elastase, 2 µM serpin [8]: 21% | % Inhibition, Cathepsin-L, 1.25 µM serpin [9]: 18% | % Inhibition, Cathepsin-L, 5 µM serpin [9]: 44% | % Inhibition, Cathepsin-L, 10 µM serpin [9]: 66% | % Inhibition, Cathepsin-L, 0.16 µM serpin [10]: 3% | % Inhibition, Cathepsin-L, 0.31 µM serpin [10]: 10% | % Inhibition, Cathepsin-L, 0.63 µM serpin [10]: 15% | % Inhibition, Cathepsin-L, 1.25 µM serpin [10]: 27% | % Inhibition, Cathepsin-L, 2.5 µM serpin [10]: 38% | % Inhibition, Cathepsin-L, 5 µM serpin [10]: 48% | % Inhibition, Cathepsin-L, 10 µM serpin [10]: 60% | % Inhibition, Cathepsin-L, 20 µM serpin [10]: 70% | IC50 of cathepsin-L activity inhibition (FIG. 6) [10]: 5 µM | fold activity against AtSerpin1, cathepsin-L inhibition (FIG. 6) [10]: 5 times and 10 times | % Inhibition, Cathepsin-L, 0.08 µM serpin [11]: 12% | % Inhibition, Cathepsin-L, 0.16 µM serpin [11]: 32% | % Inhibition, Cathepsin-L, 0.31 µM serpin [11]: 57% | % Inhibition, Cathepsin-L, 0.63 µM serpin [11]: 63% | % Inhibition, Cathepsin-L, 1.25 µM serpin [11]: 68% | % Inhibition, Cathepsin-L, 2.5 µM serpin [11]: 68% | % Inhibition, Cathepsin-L, 5 µM serpin [11]: 72% | % Inhibition, Cathepsin-L, 10 µM serpin [11]: 70% | % Inhibition, Cathepsin-L, 20 µM serpin [11]: 76% | IC50 of cathepsin-L activity inhibition (FIG. 4) [11]: 0.2 to 0.3 µM | fold activity against AtSerpin1, cathepsin-L inhibition (FIG. 4) [11]: > 10 times | % Inhibition, Cathepsin-L, 0.02 µM serpin [12]: 9% | % Inhibition, Cathepsin-L, 0.04 µM serpin [12]: 11% | % Inhibition, Cathepsin-L, 0.08 µM serpin [12]: 12% | % Inhibition, Cathepsin-L, 0.16 µM serpin [12]: 22% | % Inhibition, Cathepsin-L, 0.31 µM serpin [12]: 33% | % Inhibition, Cathepsin-L, 0.63 µM serpin [12]: 44% | % Inhibition, Cathepsin-L, 1.25 µM serpin [12]: 51% | % Inhibition, Cathepsin-L, 2.5 µM serpin [12]: 59% | % Inhibition, Cathepsin-L, 5 µM serpin [12]: 71% | % Inhibition, Cathepsin-L, 10 µM serpin [12]: 75% | % Inhibition, Cathepsin-L, 20 µM serpin [12]: 79% | IC50 of cathepsin-L activity inhibition (FIG. 7) [12]: < 1 µM | fold activity against AtSerpin1, cathepsin-L inhibition (FIG. 7) [12]: 2 times and 3 times

Molecule: AtSerpin1 mutant VRPR (SEQ ID NO:4) (from UniProt Q9S7T8 1-391)
% Inhibition, Cathepsin-B, 1.25 µM serpin [4]: 27% | % Inhibition, Cathepsin-B, 5 µM serpin [4]: 14% | % Inhibition, Cathepsin-B, 10 µM serpin [4]: 23% | % Inhibition, Cathepsin-L, 1.25 µM serpin [6]: 16% | % Inhibition, Trypsin, 5 µM serpin [7]: 33% | % Inhibition, Trypsin, 10 µM serpin [7]: 34% | % Inhibition, Cathepsin-L, 1.25 µM serpin [11]: 38% | % Inhibition, Cathepsin-L, 1.25 µM serpin [12]: 22%

Molecule: AtSerpin1 mutant WRHR (SEQ ID NO:6) (from UniProt Q9S7T8 1-391)
% Inhibition, Cathepsin-B, 1.25 µM serpin [4]: 26% | % Inhibition, Cathepsin-L, 1.25 µM serpin [12]: 8%
